From article PMC12394075, “Domain coupling in activation of a family C GPCR” (Nature Chemical Biology, 2024) come the findings set out here.

What is called stoichiometry N is the number of molecules, sites or subunits per partner or assembly.

This data set concerns the molecule itself. Briefly: SEC; Superdex 200 10/300 increase; 100 mM NaCl, 20 mM HEPES, pH 7.5. (In general: In gel filtration, larger molecules generally elute earlier.)

B1: isolated mGluR2 LBD (residues 22–502 with a Cys234Ser mutation) (domain or fragment, UniProt P31421 22-502, looked up)
chain: AKKVLTLEGDLVLGGLFPVHQKGGPAEECGPVNEHRGIQRLEAMLFALDRINRDPHLLPGVRLGAHILDSCSKDTHALEQALDFVRASLSRGADGSRHICPDGSYATHSDAPTAVTGVIGGSYSDVSIQVANLLRLFQIPQISYASTSAKLSDKSRYDYFARTVPPDFFQAKAMAEILRFFNWTYVSTVASEGDYGETGIEAFELEARARNISVATSEKVGRAMSRAAFEGVVRALLQKPSARVAVLFTRSEDARELLAATQRLNASFTWVASDGWGALESVVAGSERAAEGAITIELASYPISDFASYFQSLDPWNNSRNPWFREFWEERFHCSFRQRDCAAHSLRAVPFEQESKIMFVVNAVYAMAHALHNMHRALCPNTTHLCDAMRPVNGRRLYKDFVLNVKFDAPFRPADTDDEVRFDRFGDGIGRYNIFTYLRAGSGRYRYQKVGYWAEGLTLDTSFIPWASPSAGPLPASRCSE
notes: Rat is surmised because the same peptides are compared with the full-length rat construct; the simulations used human mGluR2; also called LBD-alone construct; LBD-only construct; source: Expi293 GNTI- cells, secreted into media, purified (anti-FLAG M2 resin, SEC)
Turning to B1, the “stoichiometry N” value was 2.
